Here are results for five substances from the supplement of paper PMC5998384.

Series [1] concerns HeLa Kyoto. The experiment in a line: solubility in G1/S (NP-40 vs SDS abundance) (log2 ratio); higher = more soluble. The conditions noted are these: cell cycle stage: G1/S.
For series [2], the system named is HeLa Kyoto. The experiment in a line: melting temperature (median over replicates), in situ; higher = more thermally stable.
Series [3] has as its system HeLa Kyoto. The experiment in a line: solubility change mitosis vs G1/S (difference of NP-40 vs SDS log2 ratios) (log2 ratio difference); higher = more soluble in mitosis.
Series [4] deals with HeLa Kyoto. Nature of the series: thermal stability score vs G1/S (z-score of summed log2 fold changes over temperatures); higher = more thermally stable than in G1/S.
[5] abbreviates: cell cycle stage: early G1 (4.5 h after nocodazole release).
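Throughout, for melting temperature (median over replicates), in situ: HeLa Kyoto cells synchronized by double thymidine or nocodazole block, proteins quantified by TMT10plex mass spectrometry, three independent biological replicates.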
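Throughout, for solubility change mitosis vs G1/S (difference of NP-40 vs SDS log2 ratios): synchronized HeLa Kyoto cells (double thymidine block for G1/S, nocodazole release for mitosis), protein amounts in NP-40 versus SDS lysates quantified by mass spectrometry, three biological replicates.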
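Throughout, for solubility in G1/S (NP-40 vs SDS abundance): HeLa Kyoto cells arrested at G1/S by double thymidine block, proteins quantified by TMT10plex mass spectrometry in mild NP-40 versus SDS extracts, three biological replicates.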
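Throughout, for thermal stability score vs G1/S (z-score of summed log2 fold changes over temperatures): synchronized HeLa Kyoto cells, proteins quantified by TMT10plex mass spectrometry, three biological replicates, mitosis taken 0.5 h after nocodazole release, G1/S directly after double thymidine block.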

As to “MLLLAAAFLVAFVLLLYMVSPLISPKPLALPGAHVVVTGGSSGIGKCIAIECYKQGAFITLVARNEDKLLQAKKEIEMHSINDKQVVLCISVDVSQDYNQVENVIKQAQEKLGPVDMLVNCAGMAVSGKFEDLEVSTFERLMSINYLGSVYPSRAVITTMKERRVGRIVFVSSQAGQLGLFGFTAYSASKFAIRGLAEALQMEVKPYNVYITVAYPPDTDTPGFAEENRTKPLETRLISETTSVCKPEQVAKQIVKDAIQGNFNSSLGSDGYMLSALTCGMAPVTSITEGLQQVVTMGLFRTIALFYLGSFDSIVRRCMMQREKSENADKTA [KDSR]”, the “solubility in G1/S (log2)” value in series [1] was -0.701. Moreover, the melting temperature is 60 °C in series [2] (cell cycle stage: G1/S) and 57.9 °C in series [2] (cell cycle stage: mitosis). For the same substance, in series [3], the “solubility change mitosis (log2)” value is -0.0925. Also, the thermal stability score in series [4] (setting [5]) is -2.49; in series [4] (cell cycle stage: mitosis), -3.38.

Regarding “MLLPLLLLLPMCWAVEVKRPRGVSLTNHHFYDESKPFTCLDGSATIPFDQVNDDYCDCKDGSDEPGTAACPNGSFHCTNTGYKPLYIPSNRVNDGVCDCCDGTDEYNSGVICENTCKEKGRKERESLQQMAEVTREGFRLKKILIEDWKKAREEKQKKLIELQAGKKSLEDQVEMLRTVKEEAEKPEREAKEQHQKLWEEQLAAAKAQQEQELAADAFKELDDDMDGTVSVTELQTHPELDTDGDGALSEAEAQALLSGDTQTDATSFYDRVWAAIRDKYRSEALPTDLPAPSAPDLTEPKEEQPPVPSSPTEEEEEEEEEEEEEAEEEEEEEDSEEAPPPLSPPQPASPAEEDKMPPYDEQTQAFIDAAQEARNKFEEAERSLKDMEESIRNLEQEISFDFGPNGEFAYLYSQCYELTTNEYVYRLCPFKLVSQKPKLGGSPTSLGTWGSWIGPDHDKFSAMKYEQGTGCWQGPNRSTTVRLLCGKETMVTSTTEPSRCEYLMELMTPAACPEPPPEAPTEDDHDEL [PRKCSH]”, in series [1], the “solubility in G1/S (log2)” value worked out at 0.337. Moreover, the results for the melting temperature in series [2] (cell cycle stage: G1/S) and in series [2] (cell cycle stage: mitosis) were 55 °C and 57.4 °C, respectively. For the same substance, in series [3], the “solubility change mitosis (log2)” value was -0.0303. Also, the thermal stability score came out at 0.00878 in series [4] (setting [5]) and 0.443 in series [4] (cell cycle stage: mitosis).

For “MLLSLVLHTYSMRYLLPSVVLLGTAPTYVLAWGVWRLLSAFLPARFYQALDDRLYCVYQSMVLFFFENYTGVQILLYGDLPKNKENIIYLANHQSTVDWIVADILAIRQNALGHVRYVLKEGLKWLPLYGCYFAQHGGIYVKRSAKFNEKEMRNKLQSYVDAGTPMYLVIFPEGTRYNPEQTKVLSASQAFAAQRGLAVLKHVLTPRIKATHVAFDCMKNYLDAIYDVTVVYEGKDDGGQRRESPTMTEFLCKECPKIHIHIDRIDKKDVPEEQEHMRRWLHERFEIKDKMLIEFYESPDPERRKRFPGKSVNSKLSIKKTLPSMLILSGLTAGMLMTDAGRKLYVNTWIYGTLLGCLWVTIKA [AGPAT5]”, the “solubility in G1/S (log2)” value in series [1] is -0.125. Besides, the melting temperature in series [2] (cell cycle stage: G1/S) came out at 52.1 °C; in series [2] (cell cycle stage: mitosis), 52.6 °C. In series [3], the “solubility change mitosis (log2)” value was -0.0679. Besides, the thermal stability score in series [4] (setting [5]) is 0.0279; in series [4] (cell cycle stage: mitosis), -1.01.

Turning to MLLT4, in series [1], the “solubility in G1/S (log2)” value was -0.184. The results for the melting temperature in series [2] (cell cycle stage: G1/S) and in series [2] (cell cycle stage: mitosis) were 50.9 °C and 50.3 °C, respectively. Besides, the “solubility change mitosis (log2)” value in series [3] stood at 0.00908. Besides, the thermal stability score is -0.182 in series [4] (setting [5]) and -0.125 in series [4] (cell cycle stage: mitosis).

“MLPAALLRRPGLGRLVRHARAYAEAAAAPAAASGPNQMSFTFASPTQVFFNGANVRQVDVPTLTGAFGILAAHVPTLQVLRPGLVVVHAEDGTTSKYFVSSGSIAVNADSSVQLLAEEAVTLDMLDLGAAKANLEKAQAELVGTADEATRAEIQIRIEANEALVKALE [ATP5D]”: in series [1], the “solubility in G1/S (log2)” value was determined as 0.603. Further, the melting temperature in series [2] (cell cycle stage: G1/S) was determined as 55.7 °C; in series [2] (cell cycle stage: mitosis) it was 54.5 °C. Besides, the “solubility change mitosis (log2)” value in series [3] was -0.0082. Further, the thermal stability score is -2.35 in series [4] (setting [5]) and -1.13 in series [4] (cell cycle stage: mitosis).
